In doi:10.1101/270363 (bioRxiv, 2018):

B1: CC2 fragment of nPIST (140th - 210th aa) (domain or fragment)
chain: QSVDSGAIKAKLSVHSVEDLERELEANKTEKVKEARLEAEVKLLRKENEALRRHIAVLQAEVYGARLAAKY
B2: CC1 fragment of nPIST (1st - 138th aa) (domain or fragment)
chain: MSAGGPCPAGAGGGPGGSSCPVGVSPGGVSMFRWLEVLEKEFDKAFVDVDLLLGEIDPDQADITYEGRQKMTSLSSCFAQLCHKAQTVSQINHKLEAQLVDLRSELTETQAEKVVLEKEVHEQLLQLHSTQLQLHAKT
B3: CC-WH2 fragment of nPIST (1st - 267th aa) (domain or fragment)
chain: MSAGGPCPAGAGGGPGGSSCPVGVSPGGVSMFRWLEVLEKEFDKAFVDVDLLLGEIDPDQADITYEGRQKMTSLSSCFAQLCHKAQTVSQINHKLEAQLVDLRSELTETQAEKVVLEKEVHEQLLQLHSTQLQLHAKTGQSVDSGAIKAKLSVHSVEDLERELEANKTEKVKEARLEAEVKLLRKENEALRRHIAVLQAEVYGARLAAKYLDKELAGRVQQIQLLGRDMKGPAHDKLWNQLEAEIHLHRHKTVIRACRGRNDLKRPM
B4: WH2 fragment of nPIST (200th - 289th aa) (domain or fragment)
chain: EVYGARLAAKYLDKELAGRVQQIQLLGRDMKGPAHDKLWNQLEAEIHLHRHKTVIRACRGRNDLKRPMQAPPGHDQDSLKKSQGVGPIRK

target: F-actin (filamentous actin) (rabbit, UniProt P68135 1-377); assay: co-sedimentation

Does B1 bind?
Result: binds

Does B2 bind?
Result: binds

Does B3 bind?
Result: binds

Does B4 bind?
Result: binds
